Series [1] has as its system ZF11xHunt-Kox-1 (synthetic). In words: cell_activity.
For series [2], the system named is ZF6xHunt-Kox-1 (synthetic). The experiment in a line: cell_activity. Conditions: htt mRNA repression up to 2.5-fold (60%); protein up to 2-fold; STHdh Q111 cells, 20 days.
Chain of ZF6xHunt-Kox-1 (synthetic) (chain, as listed by the source): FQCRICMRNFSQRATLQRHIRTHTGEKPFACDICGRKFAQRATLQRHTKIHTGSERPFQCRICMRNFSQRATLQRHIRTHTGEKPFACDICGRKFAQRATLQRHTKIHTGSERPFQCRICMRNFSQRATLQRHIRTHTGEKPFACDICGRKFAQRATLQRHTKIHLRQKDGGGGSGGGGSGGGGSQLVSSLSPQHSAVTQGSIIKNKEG

Chain of ZF11xHunt-Kox-1 (synthetic) (chain, as listed by the source): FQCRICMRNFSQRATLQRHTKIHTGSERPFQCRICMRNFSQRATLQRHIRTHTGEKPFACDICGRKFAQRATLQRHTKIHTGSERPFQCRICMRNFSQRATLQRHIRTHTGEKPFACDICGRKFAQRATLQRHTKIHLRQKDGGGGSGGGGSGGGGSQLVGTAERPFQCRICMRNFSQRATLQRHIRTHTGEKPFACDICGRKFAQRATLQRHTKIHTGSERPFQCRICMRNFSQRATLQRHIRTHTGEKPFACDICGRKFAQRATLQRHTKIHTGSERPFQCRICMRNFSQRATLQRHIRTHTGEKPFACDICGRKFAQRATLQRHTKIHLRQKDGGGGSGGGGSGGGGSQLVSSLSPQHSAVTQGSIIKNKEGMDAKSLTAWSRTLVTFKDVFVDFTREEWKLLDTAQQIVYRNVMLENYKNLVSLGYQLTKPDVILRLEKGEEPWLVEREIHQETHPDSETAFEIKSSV

On to R6/2 mutant htt transgene, for which, in series [1] (mean mutant htt mRNA reduction in R6/2 striatum at 6 weeks, AAV2/1 delivery), the activity is more than 45 % reduction.

For mutant htt Q111 chromosomal locus, the activity in series [1] (almost 80% mRNA reduction and 95% protein reduction, STHdh Q111 cells, 20 days) was 80 % reduction; in series [2], less than 2.5 fold.
